The target in one assay is human IL-13 (human) (UniProt P35225). As to the kind of experiment: cell-based or functional assay.
For assay [1], the target named is native (naturally occurring) human IL-13 released from HDLM-2 cells (human) (UniProt P35225). Nature of the assay: cell-based or functional assay.
native (naturally occurring) human IL-13 released from HDLM-2 cells (human), sequence (P35225 other isoform, or with tags, fused parts or gaps): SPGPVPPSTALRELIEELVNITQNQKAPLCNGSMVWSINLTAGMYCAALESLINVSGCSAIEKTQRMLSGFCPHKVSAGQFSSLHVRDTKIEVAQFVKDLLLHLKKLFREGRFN

human IL-13 (human), sequence (P35225 other isoform, or with tags, fused parts or gaps): as above

Turning to B-B13 (antibody), in the assay with human IL-13 (human), the IC50, TF-1 proliferation assay was found to be 1.02 nM and the IC50, eotaxin release from NHLF came to 0.219 nM. The IC50, HDLM-2 cell proliferation assay in assay [1] was found to be 16.7 nM.
The like results for JES10-5A2 (antibody) were, in that order, 0.471 nM, 0.623 nM and 10.7 nM.

The record behind these values is patent US20070128192A1.
